From patent publication US20160177307

Assays:
[1] = system: T1, VEGF-165 (Homo sapiens), P15692-4; assay: filter
T1 sequence: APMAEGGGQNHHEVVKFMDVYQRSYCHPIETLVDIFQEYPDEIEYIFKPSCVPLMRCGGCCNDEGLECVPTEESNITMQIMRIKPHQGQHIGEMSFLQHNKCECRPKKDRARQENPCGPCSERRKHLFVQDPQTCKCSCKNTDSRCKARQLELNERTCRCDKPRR

PDGF-AB = PDGF-AB (UniProt P04085+P01127); assay: filter
[2] = target: PDGF-BB (platelet-derived growth factor BB) (Homo sapiens) (UniProt P01127); assay: filter
[3] = system: T2, VEGF-121 (Homo sapiens), P15692-9; assay: filter
T2 sequence: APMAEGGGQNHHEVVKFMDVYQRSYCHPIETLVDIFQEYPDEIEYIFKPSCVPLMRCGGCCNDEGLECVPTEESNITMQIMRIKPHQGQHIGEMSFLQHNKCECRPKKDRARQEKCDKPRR

[4] = system: T3, VEGF-164 (Rattus norvegicus), P16612-2; assay: filter; settings: P=Nap-dU
T3 sequence: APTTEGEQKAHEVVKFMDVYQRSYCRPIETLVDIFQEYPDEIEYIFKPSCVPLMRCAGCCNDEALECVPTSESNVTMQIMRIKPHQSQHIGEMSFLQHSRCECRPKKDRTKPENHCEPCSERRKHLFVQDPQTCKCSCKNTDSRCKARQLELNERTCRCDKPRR

rVEGF164, P16612-2 = system: T4, rVEGF164, P16612-2; assay: filter; settings: rest DNA, SB18T, 37 C
T4 sequence: T3 sequence

[5] = system: T2, VEGF-121 (Homo sapiens), P15692-9; assay: cell_activity; settings: NapdU at P, VEGFR2 phosphorylation, HUVEC
[6] = system: T2, VEGF-121 (Homo sapiens), P15692-9; assay: competition; settings: Nap-dU, 2'-OMe; head-to-tail dimer, no linker; VEGF isoform not given
[7] = target: PDGF-BB (platelet-derived growth factor BB) (Homo sapiens) (UniProt P01127); assay: cell_activity
[8] = all P are NapdU, rest DNA, SB18T, 37 C
[9] = NapdU at 6,7,12,15,16,18,23,24,25,29, rest DNA, SB18T, 37 C
[10] = NapdU at P, C3 spacer 15,18, specificity control
[11] = VEGF-PDGF heterodimer, no Heg linker, NapdU, BndU

Chain of PDGF-BB (platelet-derived growth factor BB) (Homo sapiens) (P01127 82-190): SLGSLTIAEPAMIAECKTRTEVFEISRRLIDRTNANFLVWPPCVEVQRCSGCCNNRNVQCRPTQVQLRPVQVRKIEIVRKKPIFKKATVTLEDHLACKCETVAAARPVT
Chain of PDGF-AB (P01127 82-190, chain 2 of 2, other chains not shown): as the sequence (P01127 82-190) above

What does the source list for “AGCCGTTCAAGTGCTTGTAGGATTTAAATGG [4867-31_51]”?
Kd ([1]; P=Nap-dU, VEGF): 0.196 nM; Kd [1, 8]: 0.11 nM; Kd (PDGF-AB; P=Nap-dU): 14.8 nM; Kd ([2]; all P are NapdU, rest DNA, specificity control): 126 nM; Kd ([3]; all P are NapdU, rest DNA, SB18T, 37 C, Table 18 gives 728 pM): 0.2 nM; Kd [4]: 0.074 nM

What does the source list for “AGCCGTTCAAGTGCTTGTAGGATTTAAATGGA [4867-31_43]”?
Kd [1, 9]: 0.05 nM; Kd [3, 9]: 0.29 nM; Kd (rVEGF164, P16612-2; NapdU at 6,7,12,15,16,18,23,24,25,29): 0.05 nM; IC50 [5]: 2.2 nM

With “CAGCCGTTCAAGTGCTTGTAGGATTTAAA [4867-31_47]” as the sequence, how does the Kd (rVEGF164, P16612-2; all P are NapdU) read?
Its Kd is 83 nM.

“CAGCCGTTCAAGTGCTTGTAGGATTTAAAT [4867-31_46]” was tested. Which Kd [1, 8] did it give?
The Kd was 5.9 nM.

And the Kd (rVEGF164, P16612-2; all P are NapdU)?
Its Kd is 9.6 nM.

Which Kd [1, 8] does the source give for “CAGCCGTTCAAGTGCTTGTAGGATTTAAATGGA [4867-31_42]” here?
The Kd was 0.071 nM.

What about the Kd [3, 8] of the same sequence?
Its Kd is 0.2 nM.

And the Kd (rVEGF164, P16612-2; all P are NapdU)?
The Kd was 0.05 nM.

Which results are given for “CCGTTCAAGTGCTTGTAGGATTTAAATGG [4867-31_192]”?
Kd ([1]; NapdU at 4,5,10,13,14,16,21,23,27, 2'-OMe at C6,G9,C12,G15,A17,G18,G28,G29 and 2'-OMe-NapU22, 3'-inverted dT in Tables 26-27, 5'-OH form): 0.041 nM; Kd ([2]; NapdU at 4,5,10,13,14,16,21,23,27, 2'-OMe at C6,G9,C12,G15,A17,G18,G28,G29 and 2'-OMe-NapU22, 3'-inverted dT in Tables 26-27, specificity control, off-target PDGF-BB): 57 nM; Kd ([3]; NapdU at 4,5,10,13,14,16,21,23,27, 2'-OMe at C6,G9,C12,G15,A17,G18,G28,G29 and 2'-OMe-NapU22, 3'-inverted dT in Tables 26-27, 3'-idT, Table 27 gives 3.1E-11, Table 21 2.3E-11): 0.011 nM; IC50 ([5]; 2'-OMe 6,9,12,15,17,18,22,28,29): 2.1 nM

How did the Ki [6] turn out when “CCGTTCAAGTGCTTGTAGGATTTAAATGGCCGTTCAAGTGCTTGTAGGATTTAAATGG [4867-31_395]” was run?
The Ki was 0.0068 nM.

What does the source list for “CCGTTCAAGTGCTTTAGATTTAAATGG [4867-31_183]”?
Kd ([1]; Nap-dU, C3 spacer at 15 and 18, VEGF): 0.138 nM; Kd (PDGF-AB; [10]): 14.5 nM; Kd [2, 10]: 195 nM; Kd ([3]; NapdU at P, C3 spacer 15,18): 0.091 nM

“CCGTTCAAGTGCTTTAGATTTAAATGGTTACGTTACACGCGTTTATAGC [4149-8_313]” was tested. Which Kd ([1]; Nap-dU (VEGF part), Bn-dU (PDGF part), C3, Heg, 2'-OMe, VEGF) did it give?
The Kd was 0.258 nM.

And the Kd (PDGF-AB; [11])?
Its Kd is 0.165 nM.

What about the Kd [2, 11] of the same sequence?
The Kd was 0.0933 nM.

What about the Kd [3, 11] of the same sequence?
The Kd was 4.31 nM.

How did the Kd ([1]; Nap-dU, Bn-dU, C3, 1 Heg linker, 2'-OMe, VEGF) turn out when “CCGTTCAAGTGCTTTAGATTTAAATGGTTACGTTACACGCGTTTATAGC [4149-8_314]” was run?
The Kd was 0.143 nM.

What about the Kd (PDGF-AB; VEGF-1Heg-PDGF, NapdU, BndU) of the same sequence?
The Kd was 0.111 nM.

And the Kd ([2]; VEGF-1Heg-PDGF, NapdU, BndU)?
Its Kd is 0.136 nM.

What about the Kd ([3]; VEGF-1Heg-PDGF, NapdU, BndU) of the same sequence?
Its Kd is 1.55 nM.

Which results are given for “CCGTTCAAGTGCTTTAGATTTAAATGGTTACGTTACACGCGTTTATAGC [4149-8_315]”?
Kd ([1]; Nap-dU, Bn-dU, C3, 2 Heg linker, 2'-OMe, VEGF): 0.086 nM; Kd (PDGF-AB; VEGF-2Heg-PDGF, NapdU, BndU): 0.123 nM; Kd ([2]; VEGF-2Heg-PDGF, NapdU, BndU): 0.119 nM; Kd ([3]; VEGF-2Heg-PDGF, NapdU, BndU): 0.758 nM

Which Kd ([1]; Nap-dU, Bn-dU, C3, 3 Heg linker, 2'-OMe, VEGF) does the source give for “CCGTTCAAGTGCTTTAGATTTAAATGGTTACGTTACACGCGTTTATAGC [4149-8_316]” here?
Its Kd is 0.157 nM.

And the Kd (PDGF-AB; VEGF-3Heg-PDGF, NapdU, BndU)?
The Kd was 0.137 nM.

And the Kd ([2]; VEGF-3Heg-PDGF, NapdU, BndU)?
Its Kd is 0.0897 nM.

What about the Kd ([3]; VEGF-3Heg-PDGF, NapdU, BndU) of the same sequence?
The Kd was 0.5 nM.

For CGACAGCATGTATGCACATCT [5169-4_26], which Kd ([2]; NapdU (5-(N-naphthylmethylcarboxamide)-2'-deoxyuridine) at 9,11,13,19,21, rest DNA, SB18T, 37 C) is on record?
The Kd was 0.017 nM.

What about the IC50 ([7]; NapdU (5-(N-naphthylmethylcarboxamide)-2'-deoxyuridine) at 9,11,13,19,21, rest DNA, inhibition of PDGFRbeta phosphorylation) of the same sequence?
The IC50 was 1.6 nM.

What does the source list for CGACAGCATGTATGCACATCT [5169-4_84]?
Kd ([2]; NapdU at P, 2'-OMe 1,4,6,7,14,15,16,18,20,21): 0.0053 nM; IC50 ([7]; NapdU at P, 2'-OMe 1,4,6,7,14,15,16,18,20,21, PDGFRb phosphorylation, Hs27): 3.3 nM

With CGACAGCATGTATGCACATCT [5169-4_85] as the sequence, how does the Kd ([2]; NapdU at P, 2'-OMe 1,4,6,7,11,14-18,20,21) read?
The Kd was 0.0062 nM.

What about the IC50 ([7]; NapdU at P, 2'-OMe 1,4,6,7,11,14-18,20,21, PDGFRb phosphorylation, Hs27) of the same sequence?
The IC50 was 7.3 nM.

CGACAGCATGTATGCACATCT [5169-4_112] was tested. Which Kd ([2]; NapdU at P, 2'-OMe 14,16,21) did it give?
The Kd was 0.0062 nM.

What about the IC50 ([7]; NapdU at 9,11,13,19, 2'-OMe G14,A16 and 2'-OMe-NapU21, inhibition of PDGFRbeta phosphorylation) of the same sequence?
The IC50 was 1 nM.
